The record followed here is paper PMC4980431, “Ctf4 Is a Hub in the Eukaryotic Replisome that Links Multiple CIP-Box Proteins to the CMG Helicase” (Molecular Cell, 2016).

Positions count from the first letter of the chain named. Names may count otherwise. Where a SMILES comes first, the peptide text is derived from it.

For one series, the system named is Ctf4. The series can be described thus: Co-purification with Ctf4 from yeast cell extracts. It counts as cell-based, budding yeast. The conditions noted are these: extracts of yeast cells; S phase and G1-phase; immunoblotting. The protocol: Figure 3 Interaction of the Type I CIP-Box Protein Dna2 with Ctf4 Is Important for rDNA Maintenance (A) GAL-DNA2-9MYC CTF4-TAP (YFV22) and GAL-DNA2-9MYC control cells (YFV21) were grown at 30°C in rich medium containing 2% galactose and then treated as in Figure 2D. The Ctf4-TAP was isolated from cell extracts on magnetic beads coupled to IgG. (B) The smallest fragment of Dna2 that interacted with Ctf4 461–927 in the two-hybrid screen (120–456 shown in red) contains a Ctf4-interacting peptide or CIP-box, closely related to those of Sld5 and Pol1 (upper). […] (C) Mutations in the CIP-box of Dna2 abolished the interaction of full-length Dna2 (1–1,522) or Dna2 120–456 to interact with Ctf4 461–927. (D) When soaked into crystals of Ctf4 471–927, the Dna2 CIP-box binds to the helical region of Ctf4, as previously observed for the CIP-boxes of Pol1 and Sld5 ([Simon et al., 2014]). […]
Figure 4 Tof2 and Dpb2 Define a New Class of Type II CIP-Box Proteins that Bind to a Novel Binding Pocket on the Surface of Ctf4 (A) The smallest fragments of Dpb2 and Tof2 that interacted with Ctf4 461–927 in the two-hybrid screen (shown in red) were each found to contain a putative CIP-box with limited homology to the type I CIP-boxes of Sld5, Dna2, and Pol1. […] The indicated proteins were monitored by immunoblotting. […]
A general note: A western blot detects proteins with antibodies after separation by electrophoresis.

Series [1] concerns budding yeast cells (W303 background). The series can be described thus: Yeast growth in the presence of hydroxyurea. It counts as cell-based. As for the experimental part: (§1) Yeast growth, two-hybrid analysis, and immunoprecipitation experiments were performed as described in detail previously ([Maculins et al., 2015], [Maric et al., 2014]). A two-hybrid screen against amino acids 461–927 of Ctf4 was performed by the company Hybrigenics.

The next series concerns the target T1, Ctf4 471-927 (Ctf4CTD) (Saccharomyces cerevisiae, UniProt Q01454).
T1 sequence (Q01454 471-927): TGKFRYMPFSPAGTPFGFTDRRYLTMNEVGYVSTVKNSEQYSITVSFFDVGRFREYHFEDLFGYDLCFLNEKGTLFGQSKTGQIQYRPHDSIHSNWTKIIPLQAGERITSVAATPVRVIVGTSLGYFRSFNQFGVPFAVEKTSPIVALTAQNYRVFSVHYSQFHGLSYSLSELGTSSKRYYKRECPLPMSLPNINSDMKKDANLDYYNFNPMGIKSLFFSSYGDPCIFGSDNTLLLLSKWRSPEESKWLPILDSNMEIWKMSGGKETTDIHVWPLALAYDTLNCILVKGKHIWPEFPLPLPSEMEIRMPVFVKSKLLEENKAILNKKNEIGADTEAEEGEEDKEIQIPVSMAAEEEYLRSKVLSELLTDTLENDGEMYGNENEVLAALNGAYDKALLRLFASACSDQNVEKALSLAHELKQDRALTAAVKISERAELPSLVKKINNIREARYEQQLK
The series can be described thus: Fluorescence anisotropy, peptide binding to Ctf4 471-927. The conditions noted are these: legend of Figure S3C; 50 nM fluorescein-labeled Dna2 peptide, pH 7.2, 25°C; mean of three independent experiments. The arrangement: species or system budding yeast. As for the experimental part:
The lowest concentration of peptide at which the binding studies could be performed was determined via peptide calibration curves. Fluorescence anisotropy measurements were recorded in a PHERAstar Plus multi-detection plate reader (BMG Labtech) equipped with fluorescence polarization optic module (λex = 485 nm; λem = 520 nm) at 25°C. Each data point is the mean of 200 flashes/well. The voltage gain was set by adjusting the target mP values of fluorescein-labeled peptides relative to that of fluorescein (35 mP). Serial dilutions of Ctf4CTD were made in 20 mM HEPES (pH 7.2), 140 mM KCl, and 5% (w/v) glycerol in the presence of 40 nM (Sld5 and Tof2) or 50 nM (Dna2) fluorescein-labeled peptide. For Dna2 peptide, each data point is the mean of three independent experiments and curve fitting to the experimental data was performed in pro Fit 6.2 (QuantumSoft) using a Levenberg-Marquardt fitting algorithm in combination with a Gaussian error distribution analysis.
For orientation: In fluorescence polarisation assays a small probe gives low polarisation when free and higher when bound to something large.

Series [2] deals with the molecule itself. The series can be described thus: SEC-MALS; 100 μl at 2 mg/ml on Superdex S200 HR 10/300 in 20 mM HEPES pH 7.2, 160 mM NaCl, 0.5 ml/min.
In another series the test system is CMG helicase. The series can be described thus: Co-purification with CMG helicase from yeast cell extracts. It counts as cell-based, budding yeast. The conditions noted are these: extracts of S phase yeast cells; immunoprecipitation, immunoblotting. The protocol: (D) Cultures of ctf4-4E MCM4-9MYC (YFV13) and MCM4-9MYC control cells (YSS75) were synchronized in G1-phase at 30°C and then released into S phase for 20 min. The Mcm4-9MYC was isolated from cell extracts by immunoprecipitation and the associated proteins monitored by immunoblotting. (E) ctf4-4E is synthetic lethal with mrc1Δ. The cells were processed as in Figure 1A, and the photos in the lower images were taken after 20 hr growth at 30°C (the scale bars represent 50 μm). See also Figure S2. TEXT PRINTED IN THE PICTURE: (C) Ctf4-4E (471-927): 162 kDa
as §1

On to “nuclease/helicase Dna2: multi-functional nuclease/helicase Dna2, expressed in yeast cells”, for which, in the series on Ctf4, the “co-purification with Ctf4 (in words)” value is recorded as “co-purified with Ctf4”.

Turning to `NC(=O)NO` [hydroxyurea], in series [1] (ctf4-3E cells compared with ctf4Δ, Figure 5F), the “sensitivity to hydroxyurea, ctf4-3E cells (in words)” value is given as “do not share the sensitivity of ctf4Δ cells”. The “sensitivity to hydroxyurea, pol1-4A cells (in words)” value in series [1] (pol1-4A cells, in contrast to ctf4Δ, Figure 1B) is reported as “does not cause sensitivity”.

For orientation: Kd means the concentration at which binding is half-saturated. As to `CC[C@H](C)[C@H](NC(=O)[C@H](CC(=O)O)NC(=O)[C@H](CC(=O)O)NC(=O)[C@H](CC(C)C)NC(=O)[C@@H](NC(=O)[C@H](CC(=O)O)NC(=O)[C@H](CC(=O)O)NC(=O)[C@@H](NC(=O)[C@H](CC(N)=O)NC(=O)[C@H](CCCNC(=N)N)NC(=O)[C@H](CC(C)C)NC(=O)[C@@H](N)CO)[C@@H](C)CC)[C@@H](C)CC)C(=O)N[C@@H](CCC(=O)O)C(=O)NCC(=O)N[C@@H](CC(=O)O)C(=O)N[C@@H](CC(C)C)C(=O)N[C@H](C(=O)O)[C@@H](C)O` [Dna2 peptide (207-223)] (H-SLRNIDDILDDIEGDLT-OH), the Kd at Ctf4 471-927 (Ctf4CTD) was 229 µM.

B1: Ctf4-4E 471–927 (domain or fragment, budding yeast, UniProt Q01454 471-927, looked up)
chain: T1 sequence (Q01454 471-927) with L397E, A401E, A427E, I431E
notes: also called Ctf4CTD 4E mutant protein; source: purified protein
What is called stoichiometry N is a count of units in the complex or per binding partner. Take B1: in series [2], the “stoichiometry N” value stood at 3.

B2: Ctf4 471–927 (domain or fragment, budding yeast, UniProt Q01454 471-927, looked up)
chain: T1 sequence (Q01454 471-927)
notes: also called Ctf4CTD; source: purified Ctf4CTD protein
In the case of B2, the “stoichiometry N” value in series [2] amounted to 3.

B3: Ctf4-I901E: Ctf4 with glutamate mutation of I901 (protein)
chain: MVSVIDKLVFDFGGKTLVSLAPDNNTLCVANKNGLTKILKTNNPEEEPETLDSSKLVSSIKCYSNSHFLMTTMQGDALRYNIDSSQEELLARFALPLRDCCVIHSGKMAVFGGDDLELILLELDDETHKKHAIKIDEQVSQISYNSQMNILAVSMINGKVQIFSLTSTIPNKVHELNDYIVANSYDDTHRDKILSNMMDDIDKDNDNDLSETADPDENNVADPEFCAANRICTRVAWHPKGLHFALPCADDTVKIFSIKGYSLQKTLSTNLSSTKAHFIDLQFDPLRGTYIAAVDLNNKLTVWNWETSEIHYTREFKRKITNIAWKIQADSKTLDLVLGTWSGSIAIVQNLAESVVSNIPDQSVAESSTKHGLFVDSESDLENLEGNDDINKSDKLFSDITQEANAEDVFTQTHDGPSGLSEKRKYNFEDEEDFIDDDDGAGYISGKKPHNEHSYSRVHKTHSFPISLANTGKFRYMPFSPAGTPFGFTDRRYLTMNEVGYVSTVKNSEQYSITVSFFDVGRFREYHFEDLFGYDLCFLNEKGTLFGQSKTGQIQYRPHDSIHSNWTKIIPLQAGERITSVAATPVRVIVGTSLGYFRSFNQFGVPFAVEKTSPIVALTAQNYRVFSVHYSQFHGLSYSLSELGTSSKRYYKRECPLPMSLPNINSDMKKDANLDYYNFNPMGIKSLFFSSYGDPCIFGSDNTLLLLSKWRSPEESKWLPILDSNMEIWKMSGGKETTDIHVWPLALAYDTLNCILVKGKHIWPEFPLPLPSEMEIRMPVFVKSKLLEENKAILNKKNEIGADTEAEEGEEDKEIQIPVSMAAEEEYLRSKVLSELLTDTLENDGEMYGNENEVLAALNGAYDKALLRLFASACSDQNVEKALSLAHELKQDRALTAAVKESERAELPSLVKKINNIREARYEQQLK
For B3, in the series on CMG helicase, the “association with CMG helicase (in words)” value is “unable to interact with the CMG helicase”.

B4: tagged form of Tof2: tagged form of Tof2 expressed in budding yeast cells (protein)
chain: MIKMWRLQIVLVPPSAQDIITFLEARLNTPQSVSPMVQYNEDIITHNNSINNCSDPSPTSPSSQNSIQSNRSSDFINYLPNCKKFLHFTDGDNTLLQLSNEILTKFDRLYPNFKESIEIVSLQDRHGCDLDSEFIIKDVFENDGVVLVILKDELDWSRNQHISLLQLARQRRRQDNKPSTKSIVTEKRKKISKEDLSSISNKDTMHLIAKSSLKNNFINKSRVSTPLMNEILPLASKYDALNKEKCPMPLTSTVVASNVHKDVKDHARAKEGVVTQGSDNNKENIPSSTQQQKNDGAKRAESKDLDLLRNSSEDADYEPADENSPQISFDSIDTDFQLSTTSHTNSDMHIQYSNPSSGAHSPRKSSLEIKVQNKKGDDLPLNDKDIGENCRRIEAFSDEEDFNETDNDRADSFINNSKKASMGFRDINSDLDSVSFNSDIENAVQSTQSTKNVVSPPFFPEKELNNRLHQSQGKEALFRLVEKEFPDKSLGAASSTSHAKDVKIQETIRKLNRFKPTGETKVQKRNSITEPYYGKFGIMKKDKPKSITSKGVSLETKHFDDPNTIISGEKFAKFGKIKVKRKTDDVGSKVIEFKRKRNMGNRSLKDIFANAGKPPNAASTIKVVKLMRDPVDNSKDKVEATSNSTAQEQEQVSPKLPVMNSTPGKRKNGQAIPSSLERTPQLKKVKVTRSHSSPSSSSSMSLESSLDSSSSDDSDDDSDSRNVQVKKINFKTSHGPAGNSNGKPMLDVDDNEINTKKYQTPKYVESDEDDQ
modifications: left off: ProteinA, end not stated, kept
notes: tagged form of Tof2 expressed in budding yeast cells
Take B4: the “co-purification with Ctf4 (in words)” value with Ctf4 is “co-purified with Ctf4 in both G1-phase and S phase”. Moreover, the “association with CMG helicase (in words)” value in the series with CMG helicase is reported as “co-purified with the CMG helicase during S phase”.
